{"source": "paper PMC5544353", "molecular_target": "Reconstituted CENP-A chromatin (CENP-A nucleosome arrays with Myc-tagged histone H4) (UniProt Q569M3)", "sequence (Q569M3 whole entry, looked up)": "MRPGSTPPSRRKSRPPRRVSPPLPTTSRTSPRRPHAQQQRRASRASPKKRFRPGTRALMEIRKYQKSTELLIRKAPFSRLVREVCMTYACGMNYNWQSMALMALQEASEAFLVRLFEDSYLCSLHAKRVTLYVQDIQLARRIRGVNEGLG", "experiment": "chromatin-bead binding read by immunofluorescence"}
{"substance": "M18BP1-2 truncation, amino acids 747-944 (in vitro translated) (domain or fragment)", "values": [{"measurement": "binding as percent of full-length M18BP1-2", "value": 53, "unit": "%"}]}
{"substance": "Xenopus laevis M18BP1-1 (natural protein)", "values": [{"measurement": "fold enrichment on CENP-A chromatin relative to H3 chromatin", "value": 2.5, "unit": "fold"}]}
{"substance": "Xenopus laevis M18BP1-2, full length (natural protein)", "values": [{"measurement": "fold enrichment on CENP-A chromatin relative to H3 chromatin", "value": 5, "unit": "fold"}]}
